Measured values published in article PMC5065529, “Wnt Signalosome Assembly by DEP Domain Swapping of Dishevelled” (Molecular Cell, 2016).
Several values for one entry are separate records, joined by “and”; a condition that tells them apart may be missing. Equal values may be shown once. Blank lines part the entries; values can stand above or below the molecule they belong to.

Columns and labels:
[1] = target: DEP_(414–507)-GFP, minimal DEP domain of DVL2 (UniProt O14641); experiment: FZD5-dependent PM recruitment of DEP-GFP (cell scoring); conditions: 100 cells scored in each case, label printed as 'T526A:S529', new residue at 529 not given, read off a plot
[2] = target: the molecule itself; experiment: SEC-MALS; purified Lip-DEP_(416–511), WT or mutant, unfractionated or purified fractions; PBS, GE Superdex S-200 10/300 analytical column

other: % of cells with strong PM recruitment ([1]; parent: est. 52): 3 % of cells | other: % of cells with strong or weak PM recruitment (top of weak segment) ([1]; parent: est. 88): 24 % of cells
Molecule: SNAP-FZD5 (Frizzled 5), wild type (from UniProt Q13467) T526A:S529

B1: Lip-DEP_(416–511) L445E (domain or fragment, human, UniProt O14641 416-511, looked up)
chain: GLSVHTDMASVTKAMAAPESGLEVRDRMWEKITIPNAFLGSDVVDWLYHHVEGFPERREARKYASGLLKAGLIRHTVNKITFSEQCYYVFGDLSGG
notes: Dishevelled 2 (DVL2), human, DEP domain, residues 416-511; source: E. coli BL21-CodonPlus(DE3)-RIL, purified
binding result [2]: binds

B2: Lip-DEP_(416–511), lipoyl-tagged DEP domain of DVL2 (domain or fragment, human, UniProt O14641 416-511, looked up)
chain: GLSVHTDMASVTKAMAAPESGLEVRDRMWLKITIPNAFLGSDVVDWLYHHVEGFPERREARKYASGLLKAGLIRHTVNKITFSEQCYYVFGDLSGG
notes: Dishevelled 2 (DVL2), human, DEP domain, residues 416-511; Purified essentially as in Fiedler et al., 2011; details in the Supplemental Information; also called purified DEP; wt; source: E. coli BL21-CodonPlus(DE3)-RIL, purified (SEC)
stoichiometry N [2]: 2 and 4

B3: Lip-DEP_(416–511) MLI > AAA (domain or fragment, human, UniProt O14641 416-511, looked up)
chain: GLSVHTDMASVTKAMAAPESGLEVRDRAWAKATIPNAFLGSDVVDWLYHHVEGFPERREARKYASGLLKAGLIRHTVNKITFSEQCYYVFGDLSGG
notes: Dishevelled 2 (DVL2), human, DEP domain, residues 416-511; the hydrophobic triad M443, L445, I447 changed to alanines; also called triple-alanine mutation of the hydrophobic triad; source: E. coli BL21-CodonPlus(DE3)-RIL, purified
binding result [2]: binds
